Reference: article PMC4667630, “Localized reconstruction of subunits from electron cryomicroscopy images of macromolecular complexes” (Nature Communications, 2015)

B1: bacteriophage φ6 protein P1 (natural protein, UniProt P11126 1-769, looked up)
chain: MFNLKVKDLNGSARGLTQAFAIGELKNQLSVGALQLPLQFTRTFSASMTSELLWEVGKGNIDPVMYARLFFQYAQAGGALSVDELVNQFTEYHQSTACNPEIWRKLTAYITGSSNRAIKADAVGKVPPTAILEQLRTLAPSEHELFHHITTDFVCHVLSPLGFILPDAAYVYRVGRTATYPNFYALVDCVRASDLRRMLTALSSVDSKMLQATFKAKGALAPALISQHLANAATTAFERSRGNFDANAVVSSVLTILGRLWSPSTPKELDPSARLRNTNGIDQLRSNLALFIAYQDMVKQRGRAEVIFSDEELSSTIIPWFIEAMSEVSPFKLRPINETTSYIGQTSAIDHMGQPSHVVVYEDWQFAKEITAFTPVKLANNSNQRFLDVEPGISDRMSATLAPIGNTFAVSAFVKNRTAVYEAVSQRGTVNSNGAEMTLGFPSVVERDYALDRDPMVAIAALRTGIVDESLEARASNDLKRSMFNYYAAVMHYAVAHNPEVVVSEHQGVAAEQGSLYLVWNVRTELRIPVGYNAIEGGSIRTPEPLEAIAYNKPIQPSEVLQAKVLDLANHTTSIHIWPWHEASTEFAYEDAYSVTIRNKRYTAEVKEFELLGLGQRRERVRILKPTVAHAIIQMWYSWFVEDDRTLAAARRTSRDDAEKLAIDGRRMQNAVTLLRKIEMIGTTGIGASAVHLAQSRIVDQMAGRGLIDDSSDLHVGINRHRIRIWAGLAVLQMMGLLSRSEAEALTKVLGDSNALGMVVATTDIDPSL
notes: P1, major shell protein of the bacteriophage φ6 polymerase complex; atomic structure PDB 4K7H was fitted into the capsid map; also called P1 shell; source: self-assembled in vitro into P124 particles; copies: 120
B2: bacteriophage φ6 P2 RNA-dependent RNA polymerase (enzyme)
chain: PRRAPAFPLSDIKAQMLFANNIKAQQASKRSFKEGAIETYEGLLSVDPRFLSFKNELSRYLTDHFPANVDEYGRVYGNGVRTNFFGMRHMNGFPMIPATWPLASNLKKRADADLADGPVSERDNLLFRAAVRLMFSDLEPVPLKIRKGSSTCIPYFSNDMGTKIEIAERALEKAEEAGNLMLQGKFDDAYQLHQMGGAYYVVYRAQSTDAITLDPKTGKFVSKDRMVADFEYAVTGGEQGSLFAASKDASRLKEQYGIDVPDGFFCERRRTAMGGPFALNAPIMAVAQPVRNKIYSKYAYTFHHTTRLNKEEKVKEWSLCVATDVSDHDTFWPGWLRDLICDELLNMGYAPWWVKLFETSLKLPVYVGAPAPEQGHTLLGDPSNPDLEVGLSSGQGATDLMGTLLMSITYLVMQLDHTAPHLNSRIKDMPSACRFLDSYWQGHEEIRQISKSDDAILGWTKGRALVGGHRLFEMLKEGKVNPSPYMKISYEHGGAFLGDILLYDSRREPGSAIFVGNINSMLNNQFSPEYGVQSGVRDRSKRKRPFPGLAWASMKDTYGACPIYSDVLEAIERCWWNAFGESYRAYREDMLKRDTLELSRYVASMARQAGLAELTPIDLEVLADPNKLQYKWTEADVSANIHEVLMHGVSVEKTERFLRSVMPR
notes: P2, RNA-dependent RNA polymerase of bacteriophage φ6, 75 kDa, monomeric; X-ray structure PDB 1HHS was fitted into the density; also called P2 polymerase; source: self-assembled in vitro into P124 particles

How the values were obtained:
[1] = molecular target: rotavirus triple-layered particle, non-VP4 protein components (rotavirus (strain not stated)) (UniProt P12476); experiment: cryo-EM structure; rotavirus triple-layered particles, previously published data set (ref. 15); icosahedral reconstruction, subtraction of non-VP4 components, localized reconstruction and 3D classification of VP4 sub-particles
Sequence of rotavirus triple-layered particle, non-VP4 protein components (rotavirus (strain not stated)) (P12476 whole entry, looked up): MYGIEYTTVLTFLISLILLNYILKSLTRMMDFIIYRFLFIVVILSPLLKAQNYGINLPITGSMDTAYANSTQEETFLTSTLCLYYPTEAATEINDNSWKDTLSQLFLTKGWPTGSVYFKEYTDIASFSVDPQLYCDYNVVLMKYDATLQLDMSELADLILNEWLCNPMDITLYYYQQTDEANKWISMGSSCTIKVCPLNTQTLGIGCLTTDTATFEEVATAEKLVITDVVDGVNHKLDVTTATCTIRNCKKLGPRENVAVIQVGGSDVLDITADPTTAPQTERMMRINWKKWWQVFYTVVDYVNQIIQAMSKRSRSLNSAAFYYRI

[2] = molecular target: the molecule itself; experiment: cryo-EM structure; φ6 P124 particles self-assembled in vitro from purified P1, P2 and P4 (molar ratio 120:120:72, 6% PEG 4000, room temperature, 90 min), separated by rate-zonal sucrose gradient centrifugation, 20 mM Tris pH 8.0; icosahedral reconstruction and localized reconstruction with 3D classification of sub-particles at the threefold axes
[3] = molecular target: B1; experiment: as above; details: both partners purified

rotavirus viral protein VP4 (from UniProt P12473 1-776) (natural protein)
occupancy of VP4 [1]: 60 to 70%

B1
binding result [2]: binds

B2
stoichiometry N [3]: ~12 copies of P2 per particle
